Data on one molecule can be found in PMC4500839 (Nature communications, 2015).

The test concerns the target gp120BaL (HIV-1 group M subtype B, isolate BaL …, UniProt Q6TAP7, strain). Put plainly: ELISA. For orientation: ELISA stands for enzyme-linked immunosorbent assay.

B1: PGT128 (antibody, V domains shown)
VH: QPQLQESGPTLVEASETLSLTCAVSGDSTAACNSFWGWVRQPPGKGLEWVGSLSHCASYWNRGWTYHNPSLKSRLTLALDTPKNLVFLKLNSVTAADTATYYCARFGGEVLRYTDWPKPAWVDLWGRGTLVTVSS
VL: QSALTQPPSASGSPGQSITISCTGTSNNFVSWYQQHAGKAPKLVIYDVNKRPSGVPDRFSGSKSGNTASLTVSGLQTDDEAVYYCGSLVGNWDVIFGGGTKLTVL
Consider B1, for which the binding result was “binds”.
